Test results published in patent US10562947B2, “Compositions and methods for preventing or treating diseases, conditions or processes characterized by aberrant fibroblast proliferation and extracellular matrix deposition” (MOERAE MATRIX, INC., priority 2011, dated 2020).
Where a SMILES comes first, the peptide text is derived from it.

Assays:
Experiment in all cases: Kinase Profiling Assay
Assay type in all cases: biochemical
Fgr(h) = Fgr(h) (Homo sapiens, UniProt P09769); settings: 100 μM peptide
Summary of the method: (§1)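 Each kinase in a 266-member human panel is assayed, in duplicate, for activity in the presence of MK2 inhibitory peptides to gauge specificity.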

SGK3(h) = target: T1, SGK3(h) (Homo sapiens, UniProt Q96BR1); settings: 100 μM peptide
T1 sequence (Q96BR1 1-496): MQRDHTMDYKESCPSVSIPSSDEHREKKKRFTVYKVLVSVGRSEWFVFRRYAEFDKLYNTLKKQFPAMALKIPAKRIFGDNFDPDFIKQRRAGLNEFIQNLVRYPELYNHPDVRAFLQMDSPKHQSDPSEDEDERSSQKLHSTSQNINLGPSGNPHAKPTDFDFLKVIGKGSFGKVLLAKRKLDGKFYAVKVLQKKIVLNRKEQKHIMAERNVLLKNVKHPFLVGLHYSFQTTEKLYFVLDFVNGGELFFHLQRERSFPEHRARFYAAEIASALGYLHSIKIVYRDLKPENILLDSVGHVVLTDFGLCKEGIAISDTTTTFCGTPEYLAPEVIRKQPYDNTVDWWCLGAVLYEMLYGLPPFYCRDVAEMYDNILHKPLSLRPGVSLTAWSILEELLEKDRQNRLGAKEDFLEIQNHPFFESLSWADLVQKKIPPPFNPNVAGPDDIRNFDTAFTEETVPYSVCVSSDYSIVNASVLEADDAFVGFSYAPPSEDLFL
Summary of the method: as §1

TrkB(h) = TrkB(h) (Homo sapiens, UniProt Q16620); settings: for TrkB(h) % activity: 100 μM peptide
Summary of the method: as §1

Lck(h) activated = Lck(h) activated (Homo sapiens, UniProt P06239); settings: 100 μM peptide
Summary of the method: as §1

SIK(h) = SIK(h) (Homo sapiens, UniProt P57059); settings: 100 μM peptide
Summary of the method: as §1

CDK2/cyclinE(h) = CDK2/cyclinE(h) (Homo sapiens, UniProt P24941); settings: 100 μM peptide
Summary of the method: as §1

TBK1(h) = target: T2, TBK1(h) (Homo sapiens, UniProt Q9UHD2); settings: 100 μM peptide
T2 sequence (Q9UHD2 1-729): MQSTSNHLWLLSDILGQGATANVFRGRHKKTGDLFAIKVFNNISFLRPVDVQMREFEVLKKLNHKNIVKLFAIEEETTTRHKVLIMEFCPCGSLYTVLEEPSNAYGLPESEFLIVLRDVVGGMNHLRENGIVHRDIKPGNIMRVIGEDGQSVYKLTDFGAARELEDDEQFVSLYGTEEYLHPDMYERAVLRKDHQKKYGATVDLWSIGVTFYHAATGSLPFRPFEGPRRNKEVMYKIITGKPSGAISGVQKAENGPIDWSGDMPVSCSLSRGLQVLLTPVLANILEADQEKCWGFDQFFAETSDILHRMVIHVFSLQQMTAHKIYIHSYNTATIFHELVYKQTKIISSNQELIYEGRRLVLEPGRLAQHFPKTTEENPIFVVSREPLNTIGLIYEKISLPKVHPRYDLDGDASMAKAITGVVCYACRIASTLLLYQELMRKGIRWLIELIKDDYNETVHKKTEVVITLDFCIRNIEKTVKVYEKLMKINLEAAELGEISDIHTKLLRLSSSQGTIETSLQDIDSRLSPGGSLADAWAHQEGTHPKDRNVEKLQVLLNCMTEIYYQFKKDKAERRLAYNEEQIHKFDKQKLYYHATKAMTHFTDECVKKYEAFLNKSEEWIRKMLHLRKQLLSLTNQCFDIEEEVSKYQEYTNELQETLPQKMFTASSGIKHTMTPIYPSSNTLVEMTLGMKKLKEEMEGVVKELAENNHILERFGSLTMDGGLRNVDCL
Summary of the method: as §1

PKCγ(h) = PKCγ(h) (Homo sapiens, UniProt P05129); settings: 100 μM peptide
Summary of the method: as §1

Fms(Y969C)(h) = Fms(Y969C)(h) (Homo sapiens, UniProt P07333, Y969C); settings: 100 μM peptide
Summary of the method: as §1

Met(h) = Met(h) (Homo sapiens, UniProt P08581); settings: 100 μM peptide
Summary of the method: as §1

Abl(h) = Abl(h) (Homo sapiens, UniProt P00519); settings: 100 μM peptide
Summary of the method: as §1

JNK2α2(h) = JNK2α2(h) (Homo sapiens, UniProt P45984); settings: 100 μM peptide
Summary of the method: as §1

BTK(R28H)(h) = BTK(R28H)(h) (Homo sapiens, UniProt Q06187, R28H); settings: 100 μM peptide
Summary of the method: as §1

FGFR3(h) = FGFR3(h) (Homo sapiens, UniProt P22607); settings: 100 μM peptide
Summary of the method: as §1

FGFR3(h), sequence (P22607 23-806): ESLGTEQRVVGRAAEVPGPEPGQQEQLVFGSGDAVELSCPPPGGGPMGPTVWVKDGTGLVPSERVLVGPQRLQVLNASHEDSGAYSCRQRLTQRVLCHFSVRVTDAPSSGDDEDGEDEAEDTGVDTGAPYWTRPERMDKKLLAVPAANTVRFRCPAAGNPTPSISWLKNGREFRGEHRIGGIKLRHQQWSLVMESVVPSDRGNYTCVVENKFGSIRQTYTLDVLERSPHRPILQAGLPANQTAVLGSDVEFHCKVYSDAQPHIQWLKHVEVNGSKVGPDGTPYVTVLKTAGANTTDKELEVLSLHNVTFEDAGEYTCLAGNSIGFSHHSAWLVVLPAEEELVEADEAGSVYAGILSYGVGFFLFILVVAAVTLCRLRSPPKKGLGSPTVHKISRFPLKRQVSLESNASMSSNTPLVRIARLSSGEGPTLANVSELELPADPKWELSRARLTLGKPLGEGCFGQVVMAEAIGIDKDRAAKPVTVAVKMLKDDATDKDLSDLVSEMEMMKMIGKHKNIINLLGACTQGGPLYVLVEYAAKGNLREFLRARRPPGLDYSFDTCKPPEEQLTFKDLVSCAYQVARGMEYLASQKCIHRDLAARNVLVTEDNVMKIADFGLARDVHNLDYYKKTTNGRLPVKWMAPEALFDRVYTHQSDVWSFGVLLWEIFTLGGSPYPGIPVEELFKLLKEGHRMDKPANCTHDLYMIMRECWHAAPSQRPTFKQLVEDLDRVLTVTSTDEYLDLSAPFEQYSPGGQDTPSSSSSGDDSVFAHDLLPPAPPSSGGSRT
Met(h), sequence (P08581 25-1390): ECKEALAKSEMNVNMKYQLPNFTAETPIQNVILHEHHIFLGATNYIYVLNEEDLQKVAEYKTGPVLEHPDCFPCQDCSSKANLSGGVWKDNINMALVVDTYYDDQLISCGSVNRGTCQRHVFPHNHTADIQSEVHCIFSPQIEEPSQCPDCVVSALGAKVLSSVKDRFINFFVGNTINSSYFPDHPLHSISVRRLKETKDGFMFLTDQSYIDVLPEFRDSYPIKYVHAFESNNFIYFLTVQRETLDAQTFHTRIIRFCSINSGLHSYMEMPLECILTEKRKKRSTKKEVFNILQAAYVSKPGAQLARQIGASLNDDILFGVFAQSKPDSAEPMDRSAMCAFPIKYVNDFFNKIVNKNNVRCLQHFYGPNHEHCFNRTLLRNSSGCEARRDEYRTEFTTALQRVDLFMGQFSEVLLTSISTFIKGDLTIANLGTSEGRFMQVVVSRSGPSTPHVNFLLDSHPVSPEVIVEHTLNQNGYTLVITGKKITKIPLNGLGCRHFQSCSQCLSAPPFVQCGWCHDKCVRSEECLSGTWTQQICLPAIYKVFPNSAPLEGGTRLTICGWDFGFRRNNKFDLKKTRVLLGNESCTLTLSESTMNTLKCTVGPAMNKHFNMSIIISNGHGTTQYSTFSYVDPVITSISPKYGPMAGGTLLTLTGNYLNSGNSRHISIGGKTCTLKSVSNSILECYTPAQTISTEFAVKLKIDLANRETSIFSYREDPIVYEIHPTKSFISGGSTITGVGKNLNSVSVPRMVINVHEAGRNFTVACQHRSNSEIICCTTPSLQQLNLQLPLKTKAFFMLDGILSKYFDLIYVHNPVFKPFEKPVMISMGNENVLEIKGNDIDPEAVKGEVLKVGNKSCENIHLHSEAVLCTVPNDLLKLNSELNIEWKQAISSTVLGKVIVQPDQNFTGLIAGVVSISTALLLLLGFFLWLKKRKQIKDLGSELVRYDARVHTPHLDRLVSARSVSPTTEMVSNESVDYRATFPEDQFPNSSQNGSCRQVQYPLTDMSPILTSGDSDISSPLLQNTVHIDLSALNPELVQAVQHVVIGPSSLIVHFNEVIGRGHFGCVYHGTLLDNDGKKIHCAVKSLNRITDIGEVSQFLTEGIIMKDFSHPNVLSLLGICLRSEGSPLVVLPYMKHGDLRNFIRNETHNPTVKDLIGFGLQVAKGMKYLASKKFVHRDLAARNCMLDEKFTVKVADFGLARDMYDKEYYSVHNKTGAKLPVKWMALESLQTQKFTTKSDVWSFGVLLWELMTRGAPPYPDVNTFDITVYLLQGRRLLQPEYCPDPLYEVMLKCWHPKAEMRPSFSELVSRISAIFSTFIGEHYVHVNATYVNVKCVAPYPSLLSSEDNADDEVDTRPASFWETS
Abl(h), sequence (P00519 whole entry): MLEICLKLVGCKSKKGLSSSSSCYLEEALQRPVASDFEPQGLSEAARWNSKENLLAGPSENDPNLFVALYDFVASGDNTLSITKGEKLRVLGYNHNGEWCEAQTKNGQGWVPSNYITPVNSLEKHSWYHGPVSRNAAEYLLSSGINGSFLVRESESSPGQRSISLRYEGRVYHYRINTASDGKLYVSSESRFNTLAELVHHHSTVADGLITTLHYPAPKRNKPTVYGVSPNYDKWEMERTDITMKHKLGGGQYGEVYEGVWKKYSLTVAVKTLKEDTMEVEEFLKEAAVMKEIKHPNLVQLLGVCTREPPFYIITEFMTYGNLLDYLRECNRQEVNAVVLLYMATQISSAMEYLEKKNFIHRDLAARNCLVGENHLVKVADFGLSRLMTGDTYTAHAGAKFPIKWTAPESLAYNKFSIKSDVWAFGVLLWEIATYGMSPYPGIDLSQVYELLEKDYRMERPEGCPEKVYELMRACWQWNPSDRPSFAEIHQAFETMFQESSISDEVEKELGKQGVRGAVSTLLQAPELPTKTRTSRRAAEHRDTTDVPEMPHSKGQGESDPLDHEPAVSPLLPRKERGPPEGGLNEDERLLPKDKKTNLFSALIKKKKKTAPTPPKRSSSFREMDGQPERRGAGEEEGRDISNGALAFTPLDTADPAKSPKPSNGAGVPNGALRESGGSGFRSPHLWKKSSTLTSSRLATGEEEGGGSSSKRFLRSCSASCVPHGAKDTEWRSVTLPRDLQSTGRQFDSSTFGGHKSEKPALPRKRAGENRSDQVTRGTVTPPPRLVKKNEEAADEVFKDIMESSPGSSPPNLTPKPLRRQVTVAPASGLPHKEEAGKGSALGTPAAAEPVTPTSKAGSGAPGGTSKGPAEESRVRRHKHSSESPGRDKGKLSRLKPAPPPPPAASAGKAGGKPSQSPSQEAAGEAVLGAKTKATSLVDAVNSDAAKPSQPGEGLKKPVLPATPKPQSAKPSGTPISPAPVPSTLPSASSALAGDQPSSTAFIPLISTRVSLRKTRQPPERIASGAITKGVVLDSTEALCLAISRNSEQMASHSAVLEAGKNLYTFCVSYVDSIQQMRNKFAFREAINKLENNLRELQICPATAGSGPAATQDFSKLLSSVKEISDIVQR
SIK(h), sequence (P57059 whole entry): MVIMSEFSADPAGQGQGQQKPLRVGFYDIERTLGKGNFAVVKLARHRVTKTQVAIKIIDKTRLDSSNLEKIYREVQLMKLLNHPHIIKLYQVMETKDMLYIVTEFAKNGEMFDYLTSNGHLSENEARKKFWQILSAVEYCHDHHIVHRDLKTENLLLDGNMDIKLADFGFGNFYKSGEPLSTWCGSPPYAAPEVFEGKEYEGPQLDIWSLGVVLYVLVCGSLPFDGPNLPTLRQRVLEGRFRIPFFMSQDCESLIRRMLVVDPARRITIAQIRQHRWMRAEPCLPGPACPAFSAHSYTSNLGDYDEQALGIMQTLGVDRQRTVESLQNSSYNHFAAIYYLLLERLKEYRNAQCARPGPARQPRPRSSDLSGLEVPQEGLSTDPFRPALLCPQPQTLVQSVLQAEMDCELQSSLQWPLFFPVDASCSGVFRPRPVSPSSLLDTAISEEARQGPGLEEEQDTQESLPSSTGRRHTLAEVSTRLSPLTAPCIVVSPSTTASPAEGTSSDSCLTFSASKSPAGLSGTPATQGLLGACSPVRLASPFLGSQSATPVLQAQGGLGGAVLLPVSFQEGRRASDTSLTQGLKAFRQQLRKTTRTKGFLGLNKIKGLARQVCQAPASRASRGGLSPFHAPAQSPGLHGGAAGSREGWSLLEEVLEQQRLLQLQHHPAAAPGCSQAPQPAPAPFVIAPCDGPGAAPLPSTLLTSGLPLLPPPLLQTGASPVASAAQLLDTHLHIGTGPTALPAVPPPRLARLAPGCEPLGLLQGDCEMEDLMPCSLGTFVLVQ

FAKLAARLYRKALARQLGVAA [MMI-0300]
Fgr(h) % activity (Fgr(h)): 60% | SGK3(h) % activity (SGK3(h)): 10% | TrkB(h) % activity (TrkB(h)): 5% | Lck(h) activated % activity (Lck(h) activated): 243% | SIK(h) % activity (SIK(h)): 66% | CDK2/cyclinE(h) % activity (CDK2/cyclinE(h)): 94% | TBK1(h) % activity (TBK1(h)): 37% | PKCγ(h) % activity (PKCγ(h)): 89% | Fms(Y969C)(h) % activity (Fms(Y969C)(h)): 72% | Met(h) % activity (Met(h)): 65% | Abl(h) % activity (Abl(h)): 69% | JNK2α2(h) % activity (JNK2α2(h)): 98% | BTK(R28H)(h) % activity (BTK(R28H)(h)): 74%

CC(C)C[C@H](NC(=O)[C@H](C)NC(=O)[C@H](CCCCN)NC(=O)[C@H](C)NC(=O)[C@H](CCCNC(=N)N)NC(=O)[C@H](C)NC(=O)[C@H](CCC(N)=O)NC(=O)[C@H](CCCNC(=N)N)NC(=O)[C@H](C)NC(=O)[C@H](C)NC(=O)[C@H](C)NC(=O)[C@H](CCCNC(=N)N)NC(=O)[C@H](C)NC(=O)[C@@H](N)Cc1ccc(O)cc1)C(=O)N[C@@H](C)C(=O)N[C@@H](CCCNC(=N)N)C(=O)N[C@@H](CCC(N)=O)C(=O)N[C@@H](CC(C)C)C(=O)NCC(=O)N[C@H](C(=O)N[C@@H](C)C(=O)N[C@@H](C)C(=O)O)C(C)C [MMI-0100] (H-YARAAARQARAKALARQLGVAA-OH; N-terminus and C-terminus assumed)
inhibition at 100 µM (TrkB(h); read-out: inhibition of kinase activity of TrkB): > 65%

KAFAKLAARLYRKALARQLGVAA [MMI-0400]
Fgr(h) % activity (Fgr(h)): 47% | FGFR3(h) % activity (FGFR3(h)): 0% | SGK3(h) % activity (SGK3(h)): 8% | TrkB(h) % activity (TrkB(h)): 8% | Lck(h) activated % activity (Lck(h) activated): 216% | SIK(h) % activity (SIK(h)): 68% | CDK2/cyclinE(h) % activity (CDK2/cyclinE(h)): 83% | TBK1(h) % activity (TBK1(h)): 39% | PKCγ(h) % activity (PKCγ(h)): 79% | Fms(Y969C)(h) % activity (Fms(Y969C)(h)): 91% | Met(h) % activity (Met(h)): 62% | Abl(h) % activity (Abl(h)): 84% | JNK2α2(h) % activity (JNK2α2(h)): 96% | BTK(R28H)(h) % activity (BTK(R28H)(h)): 24%

YARAAARQARAKALNRQLGVA (Mammalian) [MMI-0200]
Fgr(h) % activity (Fgr(h)): 71% | FGFR3(h) % activity (FGFR3(h)): 208% | SGK3(h) % activity (SGK3(h)): 58% | TrkB(h) % activity (TrkB(h)): 7% | Lck(h) activated % activity (Lck(h) activated): 90% | TBK1(h) % activity (TBK1(h)): 98% | PKCγ(h) % activity (PKCγ(h)): 101% | Fms(Y969C)(h) % activity (Fms(Y969C)(h)): 88% | Met(h) % activity (Met(h)): 71%

HRRIKAWLKKIKALARQLGVAA (Mammalian) [MMI-0500]
FGFR3(h) % activity (FGFR3(h)): 10% | SGK3(h) % activity (SGK3(h)): −3% | TrkB(h) % activity (TrkB(h)): 12% | Lck(h) activated % activity (Lck(h) activated): 76% | SIK(h) % activity (SIK(h)): 40% | CDK2/cyclinE(h) % activity (CDK2/cyclinE(h)): 19% | TBK1(h) % activity (TBK1(h)): 16% | PKCγ(h) % activity (PKCγ(h)): 6% | Met(h) % activity (Met(h)): 27% | Abl(h) % activity (Abl(h)): 16% | JNK2α2(h) % activity (JNK2α2(h)): 81% | BTK(R28H)(h) % activity (BTK(R28H)(h)): 10%
